# Measurements as given in the nanobody polyreactivity screen of Harvey et al. (2022).
# Test: yeast display, Sf9 membrane polyspecificity reagent, FACS + sequencing; frameworks hold sequencing errors
# Outline: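 Nanobodies came from a synthetic yeast display library in Saccharomyces cerevisiae BJ5465, induced with galactose for 36–48 hours and stained for 1 hour at 4 °C with 10% biotinylated, detergent-solubilized Sf9 membrane reagent. Cells were enriched on streptavidin microbeads and then FACS-sorted, with low and high (top ~1%) gates set on anti-HA fluorescence for expression and streptavidin fluorescence for reagent binding. Each polyreactivity label reflects the gate a clone came from. Genes were amplified by colony PCR, sequenced by MiSeq 2 × 250 and filtered by CDR length.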
row,Sequence,polyreactivity (PSR sort gate)
1,QVQLVESGGGLVQAGGSLRLSCAASGSTFPRYAMGWYRPAPGKERELVAAISSSGRTYYADSVKGRFTISRDNAKNTVYLQMNSLNPEDTAVYYCNAPVARGEASYYWGQGTQVTVSS,high polyreactivity
2,QVQLVESGGGLVQAGGSLRLSCAASGRTFRWYAMGWYRQAPGKERELVAAITGGGRTYYADSVKGSFTISRDYAKNTVYLQMNSLKPEDTAVYYCNKYPSSGNYINAYDYWGQGTQVTVSS,high polyreactivity
3,QVQLVESGGGLVQAGGSLRLSCAASGRTFSAYAMGWYRQAPGKERELVAAITLSVGSTYYADSVKGRFTISRDNAKNTVYLQMNSLKPEDTAVYYCNKYKKGEGGITIVRFDYWGQGTQVTVSS,low polyreactivity
4,QVHLVESGGGLVQAGGSLRLSCAASGRTIKRYAMGWYRQAPGKERELVATISRSGSSTYYADSVKGRFTISRANAMNTVYLQMNSLKPEDTAVYYCNAYVPDIWVNGYDSWGQGTQVTVSS,high polyreactivity
5,QVQLVESGGGLVQAGGSLRLSCAASGSIFASNAMGWYRQAPGKERELVAAINSGDSTNYADSVKGRFTISRDNAKNTVYLQMNSLKPEDTAVYFCARGLEERYDYWGQGTQVTVSS,low polyreactivity
6,QVQLVESGGGLVQAGGSLRLSCAASGSTFVTNVMGSYRQAPGKERELVAAISYSGGNTYYEDSVKGRFTISRDNSKNTVYLQRNSLNPEDTAVYYCDASYKQFKKMGYWGQGTQVTVSS,high polyreactivity
7,QFQLVESGGGLVQAGGSLRLSCAASGRTFIGYAMGWYRQAPGKERELVAAITSDGGTNYADSVKGRFTISRDNAKNTVNLQMNSQKPEDTAVYYCGARRRVSYHLYGYWGQGTQVTLSS,high polyreactivity
8,QVQLVESGGGLVQAGGSLRLSCAASGSIYYRYAMGWYRQAPGKERELVAAISKRGGSTYYADSVKGRFTISRDNAKITVYLQMNRLKPEDTAVYYCAAEVSSFLYTPSYSTDDYWGQGTQVTVSS,high polyreactivity
9,QVQLVESGGGLVQAGGSLRLSCAASGSIFAEYAMGWYRQAPGKERELVAAINGGGSTYYADSVKGRFTISRDNAKNTVYLEMNSLKPEDTAVYYCAAEKYTSWYSFWGYLYDYWGQGTQVTVSS,high polyreactivity
10,QVQLVESGGGLVQAGGSLRLSCAASGSTIDGYAMGWYRQAPRKERELVAAITFDGSSTYYADSVKGRFTISRDNAKNTVYLQMNSLKPEVTAVYYCAAASSYWVLWDDYWGQGTQVTVSS,low polyreactivity
11,QVQLVESGGGLVQAGGSLRLSCAASGITFGYYAMGWYRQAPGKEREFVAGITTSGGTTYYADSVKGRFTISRDNENNTVYLHMNSLKPEDTAVYYCAVYGGVKRGSFYYWGQGTQVTVSS,low polyreactivity
12,QVQLVESGGGLVQAGGSLRLSCAASGSIFTRNAMGWYRQAPGKEREFVAAISSSGVSTYYADSVKGRFTISRDNAKNTVYLQMNSLKPEDTAVYYCAARWGTKSGRYDYWGQGTQVTVSS,high polyreactivity
13,QVQLEESGGGLVQAGGSLRLTCAASGFIFKSYTMGWYRQATGKEMELVAAITSTGGGTYYADSVKGRFTISRDNAKNTVYLQMNSLKPEDTAVYYCNARTYVTVDYDFWGQGTQVTVSS,high polyreactivity
14,QVQLVESGGGLVQAGGSLRLSCAASGSIIRKYAMGWYRQAHGKERELVAAISRRTGNTYYADSVKGRFTISRDNAKNTVYLQMNSLKPEDTAVYYCAADYYSSSSWSEVDSWGQGTQVTVSS,high polyreactivity
15,QVQLVESGGGLVQAGGSLRLSCAASGLIFGSYAMGWYRQAPGKEMELVAAISWSGGSTNYADSVKGRFTISRDNSKNTVDLQMNSLKPEDTAVYYCAARGYPLGIGRIKRNYWGQGTQVTVSS,high polyreactivity
16,QVQLVESGGGLVQAGGSLLLSCAASGSTFSYYAMGWYRPAPGKERELVATITKRGGSTYYADSVKGRFTISRDNAKNTFYVQLNSLKPEDTAVYDCAASYPSRWRATYPTGFEYWGQGTQVTVSS,high polyreactivity
17,QVQLVESGGGLVHAGGSLRLSCAASGFIFDTYAMGWYRQAPGKERELVAAISRSGVRTYYADSVKGRFTISRDNAKNTVYLQMNILKPEDTAVYYCNAALNRYHFGRAFPGVYWGHGTQVTVSS,high polyreactivity
18,QVQLVESGGGLFQAGGSLRLSCAASGSIFYYYAMGWYRQAPGKERELVAAITRSSGSTYADSVKGRFTISGDNAMYTVYVQMNSLKPEDTAVYYCATVQSDWRRNYSYYHWGQATQVTVSS,high polyreactivity
19,QVQLVESGGGLVQAGGCLRLSCAASGSTFYVYDMGWYRQAPGKERELVAAMSKRRGTTYYADSVKGRFTISRDNAKNTVYLQMNSLKPEDTAVYYCAAVFRSPSAGYQGGYWGQGSQVTVSS,high polyreactivity
20,QVQLVESGGGLVQAGGSLRLTCAASGRTLGGYTMGWSRQAPGKERELVAAITTGGSTNYADSVKGRFTISRDNAKNTVYLQMNSLKPEDTAVYYCATELVFDKRYWYDYWGQGTQVTVSS,low polyreactivity
21,QVQLVESGGGLVQAGGSLRLSCAASGITFNTYAMGWYRQAPGKERELVAVITWSDGGTYYADSVKGRFTISRDNAKNTVYLQMNSLKPEDTAVYYCAKVLGGLRHGEVLDEYDYWGQGTQVTVSS,low polyreactivity
22,QVQLVESGGGLVQAGGSLRLSCAASGRIFPWYAMGWYRQAPGKERELVAAIKWDSGSTYYADSVKGRFTISRDNAKNTVYLQMNSLKPEDTAVYYCAAEYVAWYYGLYFSYDYWGQGTQVTVSS,high polyreactivity

row,Sequence,polyreactivity (PSR sort gate)
1,QVQLVESGGGLVQAGGRLRLSSAASGFIFYYYAMGWYREAPGKERELVAAISTDGGSTFYADSVKGRFTISRDNAKNTVYLQMNSLKPEDTAVYYCNAPYYGWGYWPLEYIRYEYWGQGTQVTVSS,low polyreactivity
2,QVQLVESGGGLVQAGGSLRLSCAASGSIFKRYAMGWYRQAPGKERELVAAISRRGASTYYADSVKGRFTISRDNAKNTVYLQMNSLKPEDTAVYYCNAYLPRQGPSGRPRSQYDSWGQGTQVTVSS,high polyreactivity
3,QVQLLESGGGLVPSRGSLRLSCAASGFTFAHYAMGWYRQAPGKERELVAAISGSGSSTYYADSVKGRFTISRDNAKNNVYLQMNSLKPEDTADYYCNVRWYFLYDYWGQGTQVTVSS,low polyreactivity
4,QVQLEESCGGLVQAGGRLRLSCAASGSIFRFNVMGWYRHAPGKERDLVAAITRGDSTNYADSVKGRFTISRDNAKITVYLQMNILIQDDSAVYYCAAGYYYYLRDHDYWGQGTQVTVSS,low polyreactivity
5,QVQLVESGGGLVQAGGSLRLSCAASGSIFYTNAMGWYRQAPGKERELVAAIRWSGGRTYYADSVKGRFTISRDNAKNTVYLQMNSLKPEDTAVYYCNKVPRTPIPYKYGYWGQGTQVTVSS,high polyreactivity
6,QVQLVESGGGLVQAGGSLCLSCAGSGIFVYKAMGRYRQAPGKEREFVAAINKSGASTFYADSVKGRFTISRDNAKKTVYLQMNSLKPEDTAVYYCAKVPHVYRHYYYWGQGTQVTVSS,low polyreactivity
7,QVQLVESGGGLVQAGGSLRLSCAASGLTFKYYTMGWYRQAPGKERELVADISRTGRTSYADSVKGRFTISRDNAKNTVYLQMNSLKPEDTAVYYCNALAGIAQRRTGYYNPGDYWGQGTQVTVSS,high polyreactivity
8,QVQLVESGGGLVQAGGSLRISCAASGSIFTINAMGWYRQAPGKERELVARITSVDSTNYADSVKGRFTISRDNAKNNVHLQMNSLKPEDTAVYYCNATFGYPFVDYDDYWGQGTQVTVSS,low polyreactivity
9,QVQLVESGAGLVQAGGSLRLSCAASGRTFNFYTMGWYRQAPGKERELVAAIDASGGRTYYADSVKGRFTISRDNAKNTVYLQMNSLKPEDTAVYYCAKYPRYSYVGYGYWGQGTQVTVSS,high polyreactivity
10,QVQLVESGGGIVQAGRSLRLSCAASGNTFYLYAMGWYRQAPGKERELVATITSGGRTTYADSVKGRFTISRDNAKNTVYLQMNSLKPEDTAVYYCAARRVQYYGWGGMEYWGQGTQVTVSS,high polyreactivity
11,QVQLEESGGGLLQAGGSLRLSCAASGSTFLRNAKGWYRQAPGKERELVATITISGGSTHYADSVKGRFTISRDNAKNTVYLPMNSLKPEDTAVYYCGTPRYPSYDYWGQGTQVTVSS,low polyreactivity
12,QVQLVESGGGLVQAGGSLRLSCAASGSTFSFYDMGWSRQAPGKEPELVAAITGSGGTTYYADSVKVRFTISRDNAKNTVYFQMNILKPEDTAFYYCAADSLESYPDYEYDFWGQGTQVTVSS,low polyreactivity
13,QVQLVESGGGLVQAGGSLRLSCAASGRIFRGYTMGWYRQAPGKEREFVAAITANGGRTYYADSVKGRFTISRDTAKNTVYLKMNRLKPEDTAVYYCNARTYTYRGSFDYWVQGTQVTVSS,high polyreactivity
14,QVQLVESGGGLVQAGGSLRLSCAASGLTFFLYAMGWYRQAPGKERELVAAISSRGGSTYYADSVKGRFTISRDNAKNTVYLQMNSLKTEDTAVYYCAAATKGDEDYWGQGTQVTVSS,high polyreactivity
15,QDQLVESGGGLVQAGGSLRLSCAASGRIFTGNAMGWYRQAPGKERELVAAITKSGGSTYYADSVKGRFTISRDNAKNTVYLQMNSLKPEDTAVYYCAATRYLHYVYKYGYWGQGTQVTVSS,high polyreactivity
16,QVQLVESGGGLVQAGGSLRLSCAASASIFYIYGIGWYRQAPGKERELVARISSGDRTNYADSVKGRFTISRDNAKNTVYLHMNSLKAEDTAVYYCNARVSYYLGRYYWGQGTQVTVSS,high polyreactivity
17,QVQLVESGGGLVQAGGSLRLSCGASGSIFYGYAMGWYRQAPGKERELVASITYSGGSTYYADSVKGRFTISRDNAKNTVYLQMNSLKPEDTTVYYCAVIGYHYSAISPASQTRQGYDYWGQGTQVTVSS,low polyreactivity
18,QVQLVESGGGLVQAGGSLRLSCAGSGSIFYQYAMGWYRQAPGKERELVAAISDSGGSTHYADSVKGRFTISRDNAKNTVYLQMNSLKPEDTAVYYCPANLYYQYGGDYWGQGSQVTVSS,low polyreactivity
19,QVQLVESGGGLVQAGGSLRLSCAASGSTFTRYAMGWYRQAPGKERELVAAISGGGSTNYADSVKGRFTISRDNANNTVYLQKNSLKPEVTAVYFCAARVRTTGYSQMYYWGQGTQVTVSS,low polyreactivity
20,QVQLVESGGGLVQAGGSLRLSCAASGRTFYTYAMGWYRQAPGKARELVAAISSSGSTYYADSVKGRFTISRDNAKNTVDLQMNSLKPEDTAGYYCNARTSRYRRGGDSWGQGTQVTVSS,high polyreactivity
21,QVQLVESGGGLVQAGGSLRLSCAASGSTFRKYAMGWYRQAPGKEREFVAAISSSGGRTYYADSVKGRFTISRDNAKNTVYLQMNSLKPEDTAVYYCNAYFRYSYDYWGQGTQVTVSS,high polyreactivity
